In PMC8016751 (Nature, 2020):
Where two headings read alike, the source gives them in different places.

T1: Rec114-Mei4 (Saccharomyces cerevisiae, UniProt P32841;P29467 1-428;1-408)
T1 sequence 1: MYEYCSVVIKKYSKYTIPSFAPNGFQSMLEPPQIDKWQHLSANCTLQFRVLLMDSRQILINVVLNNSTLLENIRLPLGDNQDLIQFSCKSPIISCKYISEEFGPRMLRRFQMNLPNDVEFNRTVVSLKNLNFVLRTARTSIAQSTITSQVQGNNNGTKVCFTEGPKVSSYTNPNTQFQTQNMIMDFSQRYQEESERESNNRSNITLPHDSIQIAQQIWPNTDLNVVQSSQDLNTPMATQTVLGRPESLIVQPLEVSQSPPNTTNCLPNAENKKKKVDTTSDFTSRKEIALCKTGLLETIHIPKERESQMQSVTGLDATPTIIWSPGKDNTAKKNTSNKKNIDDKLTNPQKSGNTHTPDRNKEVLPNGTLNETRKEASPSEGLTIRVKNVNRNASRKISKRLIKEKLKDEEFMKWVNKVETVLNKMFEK
T1 sequence 2: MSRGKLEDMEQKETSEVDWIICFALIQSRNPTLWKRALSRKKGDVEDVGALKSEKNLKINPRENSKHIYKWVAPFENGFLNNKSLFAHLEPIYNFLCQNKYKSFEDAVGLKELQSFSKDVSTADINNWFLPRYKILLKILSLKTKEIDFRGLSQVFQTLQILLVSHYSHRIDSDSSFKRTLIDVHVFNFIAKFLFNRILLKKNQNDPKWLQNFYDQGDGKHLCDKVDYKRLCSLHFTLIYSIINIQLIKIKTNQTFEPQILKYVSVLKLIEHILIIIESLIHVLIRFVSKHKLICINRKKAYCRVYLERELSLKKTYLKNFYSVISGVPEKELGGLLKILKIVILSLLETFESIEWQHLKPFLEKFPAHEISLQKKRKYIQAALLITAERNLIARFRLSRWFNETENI

T2: Mer2 (Saccharomyces cerevisiae, UniProt P21651 1-314)
T2 sequence: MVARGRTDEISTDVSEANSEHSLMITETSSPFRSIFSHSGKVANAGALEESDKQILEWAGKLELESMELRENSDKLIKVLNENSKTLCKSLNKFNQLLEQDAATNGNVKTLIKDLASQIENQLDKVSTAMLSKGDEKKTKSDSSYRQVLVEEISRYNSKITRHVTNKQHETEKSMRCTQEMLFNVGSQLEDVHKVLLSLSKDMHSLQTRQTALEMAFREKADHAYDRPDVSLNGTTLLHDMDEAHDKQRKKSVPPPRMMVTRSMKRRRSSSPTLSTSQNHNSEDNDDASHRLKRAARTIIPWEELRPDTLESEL

T3: MBP-tagged Mei4 (S. cerevisiae, UniProt P29467 1-408)
T3 sequence: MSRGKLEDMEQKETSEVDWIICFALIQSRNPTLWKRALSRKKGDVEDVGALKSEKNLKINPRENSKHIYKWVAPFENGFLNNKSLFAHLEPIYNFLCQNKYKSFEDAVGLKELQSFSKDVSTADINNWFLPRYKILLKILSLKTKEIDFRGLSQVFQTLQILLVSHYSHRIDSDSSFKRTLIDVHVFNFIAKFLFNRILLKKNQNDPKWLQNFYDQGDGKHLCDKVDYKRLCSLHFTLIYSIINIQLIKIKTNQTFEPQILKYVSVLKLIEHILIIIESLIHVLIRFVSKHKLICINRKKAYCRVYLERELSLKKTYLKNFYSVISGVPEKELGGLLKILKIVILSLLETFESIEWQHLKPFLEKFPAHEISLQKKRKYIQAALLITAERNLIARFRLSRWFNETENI

T4: Mei4 (untagged, from ^MBP-TEVMei4) (S. cerevisiae, UniProt P29467 1-408)
T4 sequence: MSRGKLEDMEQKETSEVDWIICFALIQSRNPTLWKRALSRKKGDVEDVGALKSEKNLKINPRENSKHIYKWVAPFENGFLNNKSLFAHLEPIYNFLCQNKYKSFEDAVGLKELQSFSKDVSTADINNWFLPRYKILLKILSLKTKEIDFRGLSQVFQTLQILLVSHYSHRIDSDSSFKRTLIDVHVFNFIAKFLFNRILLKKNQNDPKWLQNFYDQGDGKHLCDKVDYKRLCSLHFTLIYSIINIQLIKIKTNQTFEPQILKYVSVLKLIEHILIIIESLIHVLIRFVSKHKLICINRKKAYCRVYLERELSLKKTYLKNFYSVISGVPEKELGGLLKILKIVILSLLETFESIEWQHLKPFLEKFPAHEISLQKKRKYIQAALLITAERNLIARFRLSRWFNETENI

B1: dsDNA20 (dsDNA)
DNA 1: AAAGATGTCCTAGCAATGTA
DNA 2: TACATTGCTAGGACATCTTT
B2: Mer2 coiled-coil domain (residues 77-227) (domain or fragment)
chain: IKVLNENSKTLCKSLNKFNQLLEQDAATNGNVKTLIKDLASQIENQLDKVSTAMLSKGDEKKTKSDSSYRQVLVEEISRYNSKITRHVTNKQHETEKSMRCTQEMLFNVGSQLEDVHKVLLSLSKDMHSLQTRQTALEMAFREKADHAYDR
B3: dsDNA40 (dsDNA)
DNA 1: CAACGTGGGCAAAGATGTCCTAGCAATGTAATCGTCTATG
DNA 2: CATAGACGATTACATTGCTAGGACATCTTTGCCCACGTTG
B4: HisFlag-tagged Rec114 (natural protein)
chain: MYEYCSVVIKKYSKYTIPSFAPNGFQSMLEPPQIDKWQHLSANCTLQFRVLLMDSRQILINVVLNNSTLLENIRLPLGDNQDLIQFSCKSPIISCKYISEEFGPRMLRRFQMNLPNDVEFNRTVVSLKNLNFVLRTARTSIAQSTITSQVQGNNNGTKVCFTEGPKVSSYTNPNTQFQTQNMIMDFSQRYQEESERESNNRSNITLPHDSIQIAQQIWPNTDLNVVQSSQDLNTPMATQTVLGRPESLIVQPLEVSQSPPNTTNCLPNAENKKKKVDTTSDFTSRKEIALCKTGLLETIHIPKERESQMQSVTGLDATPTIIWSPGKDNTAKKNTSNKKNIDDKLTNPQKSGNTHTPDRNKEVLPNGTLNETRKEASPSEGLTIRVKNVNRNASRKISKRLIKEKLKDEEFMKWVNKVETVLNKMFEK
B5: Rec114 (untagged, from ^HisFlag-TEVRec114) (natural protein)
chain: MYEYCSVVIKKYSKYTIPSFAPNGFQSMLEPPQIDKWQHLSANCTLQFRVLLMDSRQILINVVLNNSTLLENIRLPLGDNQDLIQFSCKSPIISCKYISEEFGPRMLRRFQMNLPNDVEFNRTVVSLKNLNFVLRTARTSIAQSTITSQVQGNNNGTKVCFTEGPKVSSYTNPNTQFQTQNMIMDFSQRYQEESERESNNRSNITLPHDSIQIAQQIWPNTDLNVVQSSQDLNTPMATQTVLGRPESLIVQPLEVSQSPPNTTNCLPNAENKKKKVDTTSDFTSRKEIALCKTGLLETIHIPKERESQMQSVTGLDATPTIIWSPGKDNTAKKNTSNKKNIDDKLTNPQKSGNTHTPDRNKEVLPNGTLNETRKEASPSEGLTIRVKNVNRNASRKISKRLIKEKLKDEEFMKWVNKVETVLNKMFEK
B6: Mer2 (untagged, from ^SUMOMer2) (natural protein)
chain: MVARGRTDEISTDVSEANSEHSLMITETSSPFRSIFSHSGKVANAGALEESDKQILEWAGKLELESMELRENSDKLIKVLNENSKTLCKSLNKFNQLLEQDAATNGNVKTLIKDLASQIENQLDKVSTAMLSKGDEKKTKSDSSYRQVLVEEISRYNSKITRHVTNKQHETEKSMRCTQEMLFNVGSQLEDVHKVLLSLSKDMHSLQTRQTALEMAFREKADHAYDRPDVSLNGTTLLHDMDEAHDKQRKKSVPPPRMMVTRSMKRRRSSSPTLSTSQNHNSEDNDDASHRLKRAARTIIPWEELRPDTLESEL
B7: dsDNA80 (dsDNA)
DNA 1: CTAGTATAGAGCCGGCGCGCCATGTCTAGATAGCGTTAGGTCTGCCGAATAGTACTACTCGGATCCCGAGCGAACCACGC
DNA 2: GCGTGGTTCGCTCGGGATCCGAGTAGTACTATTCGGCAGACCTAACGCTATCTAGACATGGCGCGCCGGCTCTATACTAG

How the values were obtained:
[1] = molecular target: Mer2 coiled-coil single-chain dimer (S. cerevisiae) (UniProt P21651); assay: SEC-MALS
Rec114-Mei4 = molecular target: T1, Rec114-Mei4; assay: EMSA
Mer2 = molecular target: T2, Mer2; assay: EMSA
SEC-MALS [2] = molecular target: the molecule itself; assay: SEC-MALS
MBP-tagged Mei4 = molecular target: T3, MBP-tagged Mei4; assay: SEC-MALS
[3] = molecular target: T4, Mei4 (untagged, from ^MBP-TEVMei4); assay: SEC-MALS
SEC-MALS [4] = molecular target: the molecule itself; assay: SEC-MALS; remark: listed apart in the source

Molecule | apparent K (half saturation) (Rec114-Mei4) | apparent K (half saturation) (Mer2) | also measured
Mer2 coiled-coil single-chain dimer (from UniProt P21651) |  |  | stoichiometry N [1]: 2
B1 | ~80 nM | > 400 nM | 
B2 |  |  | stoichiometry N (SEC-MALS [2]): 4
B3 | 35 nM | 64 nM | 
B4 |  |  | stoichiometry N (MBP-tagged Mei4): 2 Rec114 per Mei4
B5 |  |  | stoichiometry N [3]: 2 Rec114 per Mei4
B6 |  |  | stoichiometry N (SEC-MALS [4]): 4
B7 | 6 nM | 19 nM | 
